Test results taken from PMC1635251.

B1: Hex-S3D (ssDNA)
DNA: TCGTGT
B2: 4-thioU-Hex-S3R (XNA)
RNA: UCGUGU
modifications: 4-thio-U at position 4
B3: Hex-S1D-PS (XNA)
strand: CGACCG
modifications: phosphorothioate
B4: Hex-S3D-PS (XNA)
DNA: TCGTGT
modifications: phosphorothioate
B5: Hex-S3D-LNA (XNA)
DNA: TCGTGT
modifications: LNA at position 1
B6: Hex-S1D (ssDNA)
DNA: CGACCG
B7: Hex-S3D-2'OMe (XNA)
DNA: TCGTGT
modifications: fully 2'-OMe
B8: Hex-S1D-2'OMe (XNA)
strand: CGACCG
modifications: fully 2'-OMe
B9: Hex-S3R (ssRNA)
RNA: UCGUGU
B10: Hex-S3R pentamer, 5'-shortened (ssRNA)
RNA: CGUGU
B11: Hex-S3R pentamer, 3'-shortened (ssRNA)
RNA: UCGUG

Target: T1, HIV-1 reverse transcriptase p66/p51 (HIV-1, UniProt P03366;P03366 600-1159;600-1039)
Assay: filter binding

For B1, which binding signal is on record?
Its binding signal is 8.1 ± 1 relative binding (unit not printed).

Which binding signal does the source give for B2 here?
The binding signal was 9.8 ± 0.5 relative binding (unit not printed).

Which binding signal does the source give for B3 here?
The binding signal was 18.3 ± 6 relative binding (unit not printed).

With B4 as the binder, how does the binding signal read?
Its binding signal is 52.8 ± 9.8 relative binding (unit not printed).

Which binding signal does the source give for B5 here?
The binding signal was 4.3 ± 0.4 relative binding (unit not printed).

How did the binding signal turn out when B6 was run?
Its binding signal is 5.8 ± 0.6 relative binding (unit not printed).

B7 was tested. Which binding signal did it give?
Its binding signal is 2 ± 0.1 relative binding (unit not printed).

With B8 as the binder, how does the binding signal read?
Its binding signal is 0.5 ± 0.1 relative binding (unit not printed).

Target: HIV-2 reverse transcriptase (HIV-2, UniProt P04584;P04584 613-1171;613-1051)
Assay: filter binding

Chain of HIV-2 reverse transcriptase (P04584 613-1171, chain 1 of 2): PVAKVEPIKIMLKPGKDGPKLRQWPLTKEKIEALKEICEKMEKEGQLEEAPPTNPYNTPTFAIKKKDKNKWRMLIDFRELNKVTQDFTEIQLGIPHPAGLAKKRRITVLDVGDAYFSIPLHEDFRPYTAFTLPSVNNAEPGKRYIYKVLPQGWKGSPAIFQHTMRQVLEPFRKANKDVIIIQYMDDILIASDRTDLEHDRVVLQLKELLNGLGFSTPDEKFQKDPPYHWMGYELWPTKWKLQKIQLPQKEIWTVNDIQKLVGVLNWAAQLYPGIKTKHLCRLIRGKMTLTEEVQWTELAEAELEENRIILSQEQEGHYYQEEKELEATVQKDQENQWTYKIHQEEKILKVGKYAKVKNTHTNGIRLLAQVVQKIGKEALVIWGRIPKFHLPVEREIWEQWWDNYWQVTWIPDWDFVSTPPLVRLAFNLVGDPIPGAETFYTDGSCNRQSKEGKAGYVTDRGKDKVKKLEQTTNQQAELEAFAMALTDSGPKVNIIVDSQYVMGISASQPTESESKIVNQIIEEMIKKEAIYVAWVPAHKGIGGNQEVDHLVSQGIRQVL
Chain of HIV-2 reverse transcriptase (P04584 613-1051, chain 2 of 2): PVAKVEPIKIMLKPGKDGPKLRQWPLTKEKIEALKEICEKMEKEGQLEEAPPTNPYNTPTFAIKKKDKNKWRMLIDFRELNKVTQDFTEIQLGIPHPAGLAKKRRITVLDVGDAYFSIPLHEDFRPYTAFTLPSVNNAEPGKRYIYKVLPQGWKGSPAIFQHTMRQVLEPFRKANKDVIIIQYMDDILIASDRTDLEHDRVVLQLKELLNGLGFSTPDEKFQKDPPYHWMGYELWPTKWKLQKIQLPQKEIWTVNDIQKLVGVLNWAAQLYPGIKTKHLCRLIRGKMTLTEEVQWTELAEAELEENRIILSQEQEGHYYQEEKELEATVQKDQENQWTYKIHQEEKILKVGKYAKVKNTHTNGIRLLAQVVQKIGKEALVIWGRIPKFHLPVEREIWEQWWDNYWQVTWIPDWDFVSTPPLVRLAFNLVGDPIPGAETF

Which binding signal does the source give for B3 here?
Its binding signal is 6.6 ± 1.7 relative binding (unit not printed).

Which binding signal does the source give for B4 here?
The binding signal was 24.9 ± 3.6 relative binding (unit not printed).

Target: T1, HIV-1 reverse transcriptase p66/p51
Assay: filter binding
Remark: another data set of the same source

How did the Kd turn out when B9 was run?
Its Kd is 5.3 ± 0.5 µM.

Target: T1, HIV-1 reverse transcriptase p66/p51
Assay: filter binding
Remark: another data set of the same source

Does B10 bind?
Result: no binding

Does B11 bind?
Result: no binding
